According to US20230051715A1 (MABWELL THERAPEUTICS, published 2023):
Residue numbers refer to the chain shown, from its start. In names and notes the source's numbering stands.

T1: human C1s mutant M5 (K336G) (human, UniProt P09871 16-688)
T1 construct: The entry is the mutant itself
T1 sequence: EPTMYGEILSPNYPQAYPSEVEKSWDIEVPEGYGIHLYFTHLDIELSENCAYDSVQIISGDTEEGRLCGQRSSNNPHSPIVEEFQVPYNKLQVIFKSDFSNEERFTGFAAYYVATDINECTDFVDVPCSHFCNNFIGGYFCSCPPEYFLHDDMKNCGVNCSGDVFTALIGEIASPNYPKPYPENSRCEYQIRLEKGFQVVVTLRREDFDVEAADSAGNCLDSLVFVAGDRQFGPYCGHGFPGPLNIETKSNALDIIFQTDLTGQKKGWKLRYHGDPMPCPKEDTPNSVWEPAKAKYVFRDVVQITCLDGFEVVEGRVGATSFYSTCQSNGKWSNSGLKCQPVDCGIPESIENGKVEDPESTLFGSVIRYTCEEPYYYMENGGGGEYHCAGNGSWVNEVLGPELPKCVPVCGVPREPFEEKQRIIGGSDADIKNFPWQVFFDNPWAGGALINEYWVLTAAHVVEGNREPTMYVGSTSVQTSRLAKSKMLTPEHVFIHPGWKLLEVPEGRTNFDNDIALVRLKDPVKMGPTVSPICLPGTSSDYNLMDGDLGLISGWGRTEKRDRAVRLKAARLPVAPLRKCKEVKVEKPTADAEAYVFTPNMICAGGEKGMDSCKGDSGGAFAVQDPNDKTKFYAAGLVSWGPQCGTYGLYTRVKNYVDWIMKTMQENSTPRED

T2: human C1s proenzyme (CompTech A103) (human, UniProt P09871 16-688)
T2 construct: also called proenzyme human C1s (native C1s)
T2 sequence (looked up): T1 sequence with G336K

B1: Anti-C1s antibody hz2-8 (H1L2 G80A/T82A) (antibody, V domains shown)
VH: QVQLVQSGAEVKKPGASVKVSCKASGFNIKEYYMHWVRQAPEQGLEWMGWIDPENADAIYAQKFQGRVTITADTSTNTAYMELSSLRSEDTAVYYCARSRLFFAYWGQGTLVTVSS
VL: DIQMTQSPKSLSASVGDRVTITCRASQDVRTALDWYQQKPGQSPKLLIYSASYRYSGVPSRFSGSGSGTDFTLTISSLQPEDFATYYCQQQYTTPYTFGQGTKLEIKR
notes: Humanized variant with G80A and T82A in HC CDR2 (already in the entry), human IgG1 / kappa
B2: Anti-C1s antibody 2-8 (antibody, V domains shown)
VH: EVQLQQSGAELVRPGALVKLSCKASGFNIKEYYMHWVKQRPEQGLEWIGWIDPENGDTIYDPKFQGKASITADTSSNTAYLQLSSLTSEDTAVYYCARSRLFFAYWGQGTLVTVSA
VL: DIVMTQSHKFMSTSVGDRVSFTCKASQDVRTAVDWYQQKPGQSPKLLIYSASYRYTGVPDRFTGTGSGTDFTFTISSVQAEDLAVYFCQQQYTTPYTFGGGTKLEIKT
notes: the HC/LC entries may hold it too; also called clone 2-8

Legend:
[1] = biological target: T1, human C1s mutant M5 (K336G); assay: ELISA, plate coated with human C1s mutant M5: K336G, OD450nm; curve still rising at 1000 ng/ml, no upper plateau in the range
Experimental: ELISA was carried out by first coating 96-well plates with 200 ng/well of full-length or truncated C1s proteins overnight. The next morning, plates were blocked with SuperBlock T20 blocking buffer (Thermo Scientific 37536) for 1 h with gentle shaking. Then, various concentrations of anti-C1s antibodies diluted in SuperBlock T20 blocking buffer were added to the plates and incubated for 1 h with gentle shaking. Mouse IgG (Sigma-Aldrich 15381) and human IgG1 (BioXCell BP0297) were used as negative controls. The plates were washed before incubating with HRP conjugated secondary antibodies diluted in SuperBlock T20 blocking buffer (goat anti-mouse IgG (H+L) cross-adsorbed secondary antibody HRP (Invitrogen G-21040) or goat anti-human IgG antibody, HRP conjugate (Millipore AP309P)) for 1 h with gentle shaking. At last, the plates were washed and color developed with ELISA liquid HRP substrate (Sigma-Aldrich), followed by stopping the reaction with addition of 1M H₂SO₄ in the same volume as the ELISA liquid substrate. Bound antibody was measured by absorbance at OD₄₅₀ₙₘ.
Binding of anti-C1s antibodies to mutants M1-M20 of human C1s was measured by ELISA as described in Example 4, and results are shown in FIGS. 6B-6U. […]

[2] = biological target: T2, human C1s proenzyme (CompTech A103); assay: BLI (Octet RED96e), antibody on AHC biosensor; HuC1s Form: Proenzyme; R^2 0.9990
Experimental: Bio-Layer Interferometry technology was used for anti-C1s antibody affinity measurement and binding kinetics determinations with OCTET® RED96e system (Sartorius AG). Pre-hydrated Anti-Human IgG Fc Capture (AHC) biosensors were first equilibrated in 1×KB (Kinetic Buffer, 1×PBS pH 7.4+0.02% Tween-20+0.1% BSA) for 120 sec for the first baseline, followed by loading with […] anti-C1s antibody (2-7, FIG. 3A; 2-8, FIG. 3B; hz2-7(H1L2), FIG. 3C; hz2-8(H1L2 G80A/T82A, FIG. 3D) onto AHC biosensors for 240 sec. Then, the second baseline signal was established for 120 sec before association with various concentrations of active human C1s (CompTech A104) for 240-360 sec. At last, analyte was dissociated in 1×KB for 360 sec. Anti-C1s antibodies 2-7 and 2-8 were also analyzed against human C1s proenzyme (CompTech A103) (data not shown). Data analysis was carried out using OCTET® Data Analysis HT Software (Sartorius AG). KD, kₒₙ, koff and R² values were calculated for each antibody and target combination, as summarized in FIG. 3E showing high affinity binding with KD values in the low nanomolar to picomolar range.

Binder	EC50 [1]	Kd [2]	koff [2]	kon [2]
B1	0.468 µg/mL			
B2		490 pM	0.00012 s⁻¹	250000 M⁻¹ s⁻¹
